The numbers were not newly measured in article PMC12687026, which cites them from elsewhere.

The test system of one series is His194. Nature of the series: kinetics. The following applies: green (unconverted) LEA.
In a further series the test system is Glu212. The series is described as follows: kinetics. The following applies: green (unconverted) LEA.

“LEA (least evolved ancestor), engineered Kaede-like green-to-red photoconvertible fluorescent protein (synthetic construct (reconstructed ancestral coral fluorescent protein))”: the results for the pKa result in the series on His194 and in the series on Glu212 were “∼7.5” and “∼4.5”, respectively.
